For the data set, the target named is NbWRKY40 (GST fusion implied by GST control) (Nicotiana benthamiana, UniProt A0A7T1TE48 1-255). Description: EMSA; LightShift Chemiluminescent EMSA Kit (Thermo Scientific), manufacturer's instructions; buffer, salt, pH and temperature not stated. As to conditions: protein: recombinant; label: biotin (end label); blunt.
Sequence of NbWRKY40 (GST fusion implied by GST control) (A0A7T1TE48 entry or part of it): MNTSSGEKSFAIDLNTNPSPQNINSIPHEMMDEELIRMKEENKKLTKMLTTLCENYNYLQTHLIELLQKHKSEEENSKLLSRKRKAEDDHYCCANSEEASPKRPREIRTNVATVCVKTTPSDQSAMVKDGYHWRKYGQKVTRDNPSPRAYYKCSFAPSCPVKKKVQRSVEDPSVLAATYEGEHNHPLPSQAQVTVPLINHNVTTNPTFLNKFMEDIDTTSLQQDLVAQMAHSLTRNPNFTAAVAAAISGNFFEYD

B1: NbICS1 promoter W-box fragment (84 bp) (dsDNA)
DNA 1: TAGTACAGAATATGAAGAAAGCTTTGCATATGGTGTTTATTGACCTAGAGAAAGTGTACATCAAGGTCCCTAGGGATGTCCTTT
DNA 2: AAAGGACATCCCTAGGGACCTTGATGTACACTTTCTCTAGGTCAATAAACACCATATGCAAAGCTTTCTTCATATTCTGTACTA
For the molecule B1, the binding result was “binds”.

(Values after PMC7857026, “NbWRKY40 Positively Regulates the Response of Nicotiana benthamiana to Tomato Mosaic Virus via Salicylic Acid Signaling”.)
